Experimental data from article PMC9168451.

Tests used:
[1] = molecular target: AbMtlD Y427C_A466C double-cysteine variant (Acinetobacter baumannii)
[2] = molecular target: AbMtlD H434C_Y469C double-cysteine variant (Acinetobacter baumannii)
[3] = molecular target: Acinetobacter baumannii bifunctional mannitol-1-phosphate dehydrogenase/phosphatase (AbMtlD), wild type (Acinetobacter baumannii); assay: SEC-MALS

AbMtlD Y427C_A466C double-cysteine variant (from UniProt A0ABX6CFK3 1-715) (enzyme)
F6P reduction activity, kcat/Km for F6P (wild type: 2.388) [1]: 139000 M⁻¹ s⁻¹

AbMtlD H434C_Y469C double-cysteine variant (from UniProt A0ABX6CFK3 1-715) (enzyme)
F6P reduction activity, kcat/Km for F6P (wild type: 2.388) [2]: 149000 M⁻¹ s⁻¹

Acinetobacter baumannii bifunctional mannitol-1-phosphate dehydrogenase/phosphatase (AbMtlD), wild type (from UniProt A0ABX6CFK3 1-715) (enzyme)
stoichiometry N [3]: 2
